This series relates to R2 protein (R2Bm reverse transcriptase/endonuclease) (Bombyx mori).

Like-named read-outs stand apart in the source and are kept apart here.

Chain of R2 protein (R2Bm reverse transcriptase/endonuclease) (Bombyx mori) (chain, as listed by the source): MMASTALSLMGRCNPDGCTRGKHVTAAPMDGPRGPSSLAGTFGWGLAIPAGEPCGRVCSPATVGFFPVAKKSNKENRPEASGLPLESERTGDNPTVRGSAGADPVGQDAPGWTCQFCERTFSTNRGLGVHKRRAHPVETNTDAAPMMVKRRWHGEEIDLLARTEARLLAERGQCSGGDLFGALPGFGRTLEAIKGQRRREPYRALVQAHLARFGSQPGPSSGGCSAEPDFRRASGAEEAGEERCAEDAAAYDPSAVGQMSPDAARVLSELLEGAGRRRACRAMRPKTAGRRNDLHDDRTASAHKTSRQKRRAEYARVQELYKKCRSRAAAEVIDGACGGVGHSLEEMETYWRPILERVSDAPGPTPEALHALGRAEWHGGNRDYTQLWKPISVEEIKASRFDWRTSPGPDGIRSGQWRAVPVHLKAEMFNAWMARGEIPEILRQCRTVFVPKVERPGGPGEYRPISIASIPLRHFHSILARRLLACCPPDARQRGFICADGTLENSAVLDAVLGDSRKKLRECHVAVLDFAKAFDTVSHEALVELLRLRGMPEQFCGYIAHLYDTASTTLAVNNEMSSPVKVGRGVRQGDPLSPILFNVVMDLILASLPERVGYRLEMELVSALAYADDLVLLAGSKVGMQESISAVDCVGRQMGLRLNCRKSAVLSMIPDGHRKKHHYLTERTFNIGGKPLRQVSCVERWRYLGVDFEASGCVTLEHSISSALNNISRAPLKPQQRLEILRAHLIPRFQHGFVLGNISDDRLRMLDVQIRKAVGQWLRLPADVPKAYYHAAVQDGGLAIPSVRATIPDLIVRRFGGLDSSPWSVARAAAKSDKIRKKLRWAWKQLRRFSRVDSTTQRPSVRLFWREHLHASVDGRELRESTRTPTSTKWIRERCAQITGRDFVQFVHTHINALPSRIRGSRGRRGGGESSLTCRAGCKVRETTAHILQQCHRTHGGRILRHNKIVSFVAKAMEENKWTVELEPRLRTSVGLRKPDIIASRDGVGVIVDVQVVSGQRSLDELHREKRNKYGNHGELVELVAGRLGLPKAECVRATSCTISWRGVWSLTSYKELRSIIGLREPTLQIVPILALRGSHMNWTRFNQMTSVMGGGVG

334 nt vector RNA: where the note is “RNA-primed reverse transcription relative to 254 nt R2 RNA, template jumps 3.9%”, the binding signal stood at 0.44.

With 254 nt R2 3' UTR RNA, the binding signal (RNA-primed reverse transcription without target DNA, template jumps 12.9%) was determined as 1.

183 nt vector RNA returned a binding signal (RNA-primed reverse transcription relative to 254 nt R2 RNA, template jumps 15.1%) of 0.7.

The record behind these values is patent US20060281079.
